Results as given in article PMC7550680.

Molecular target: NaV1.5 voltage-gated sodium channel α subunit (human SCN5A) (human) (UniProt Q14524)

## Sodium channel β1 subunit carrying p.D103V (β1^D103V) (from UniProt Q07699-1 19-218) (natural protein)
  positive shift of the voltage dependence of activation (V1/2) of the NaV1.5 sodium current with β1^D103V compared to β1^WT, whole cell patch clamp in transfected HEK-293 tsA201 cells: 3.37 mV
